Source: publication PMC10397247
Read-outs that look alike come from different tables or passages of the source.

How the values were obtained:
[1] = target: T1, 4H3381-bA; assay: two-hybrid library CCNG1;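 further: natural log of median RNA to DNA barcode read ratio; higher means stronger binding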
T1 chain: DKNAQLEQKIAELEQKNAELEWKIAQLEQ

[2] = target: T2, 4H349-bA; assay: two-hybrid library CCNG1;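 further: natural log of median RNA to DNA barcode read ratio; higher means stronger binding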
T2 chain: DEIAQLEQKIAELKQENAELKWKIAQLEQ

[3] = target: T3, 4H2931-bA; assay: two-hybrid library CCNG1;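 further: natural log of median RNA to DNA barcode read ratio; higher means stronger binding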
T3 chain: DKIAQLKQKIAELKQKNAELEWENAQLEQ

[4] = target: T4, 4H3364-bA; assay: two-hybrid library CCNG1;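 further: natural log of median RNA to DNA barcode read ratio; higher means stronger binding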
T4 chain: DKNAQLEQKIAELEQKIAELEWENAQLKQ

[5] = target: T5, 4H932-bA; assay: two-hybrid library CCNG1
T5 chain: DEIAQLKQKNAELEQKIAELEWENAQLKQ

[6] = target: T6, 4H730-bA; assay: two-hybrid library CCNG1
T6 chain: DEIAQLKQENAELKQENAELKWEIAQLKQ

[7] = target: T7, 4H56-bA; assay: two-hybrid library CCNG1
T7 chain: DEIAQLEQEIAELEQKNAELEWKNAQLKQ

[8] = target: T8, 4H264-bA; assay: two-hybrid library CCNG1
T8 chain: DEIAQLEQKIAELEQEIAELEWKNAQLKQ

[9] = target: T9, 4H2859-bA; assay: two-hybrid library CCNG1
T9 chain: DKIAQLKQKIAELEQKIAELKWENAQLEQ

[10] = target: T10, 4H796-bA; assay: two-hybrid library CCNG1
T10 chain: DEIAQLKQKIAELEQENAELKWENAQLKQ

[11] = target: T11, 4H3297-bA; assay: two-hybrid library CCNG1
T11 chain: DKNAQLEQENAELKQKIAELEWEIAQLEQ

[12] = target: T12, 4H2585-bA; assay: two-hybrid library CCNG1
T12 chain: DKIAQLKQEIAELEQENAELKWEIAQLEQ

[13] = target: T13, 4H346-bH; assay: two-hybrid library CCNG1
T13 chain: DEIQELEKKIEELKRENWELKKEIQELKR

[14] = target: T14, 4H2760-bA; assay: two-hybrid library CCNG1
T14 chain: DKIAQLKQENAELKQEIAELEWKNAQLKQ

[15] = target: T15, 4H949-bA; assay: two-hybrid library CCNG1
T15 chain: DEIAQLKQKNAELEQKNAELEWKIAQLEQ

[16] = target: T16, 4H3041-bA; assay: two-hybrid library CCNG1
T16 chain: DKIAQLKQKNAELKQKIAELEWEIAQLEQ

[17] = target: T17, O8-bS; assay: two-hybrid library CCNG1
T17 chain: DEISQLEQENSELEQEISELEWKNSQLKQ

[18] = target: T18, O5-bS; assay: two-hybrid library CCNG1
T18 chain: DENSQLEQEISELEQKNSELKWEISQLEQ

[19] = target: T19, O3-bS; assay: two-hybrid library CCNG1
T19 chain: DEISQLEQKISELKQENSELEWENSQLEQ

[20] = target: T20, O7-bS; assay: two-hybrid library CCNG1
T20 chain: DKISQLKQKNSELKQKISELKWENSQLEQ

[21] = target: T21, P6A-bA; assay: two-hybrid library CCNG1
T21 chain: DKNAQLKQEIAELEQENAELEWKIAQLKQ

[22] = target: T22, O4-bS; assay: two-hybrid library CCNG1
T22 chain: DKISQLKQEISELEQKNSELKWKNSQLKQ

[23] = target: T23, O9-bS; assay: two-hybrid library CCNG1
T23 chain: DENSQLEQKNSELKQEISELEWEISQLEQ

[24] = target: T24, O6-bS; assay: two-hybrid library CCNG1
T24 chain: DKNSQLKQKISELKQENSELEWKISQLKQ

[25] = target: T25, 4H918-AA; assay: two-hybrid library CCmax
T25 chain: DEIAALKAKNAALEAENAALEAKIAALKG

[26] = target: T26, 4H797-AA; assay: two-hybrid library CCmax; settings: mean of both orientations
T26 chain: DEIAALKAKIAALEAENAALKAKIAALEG

[27] = target: T27, 4H953-AA; assay: two-hybrid library CCmax; settings: mean of both orientations
T27 chain: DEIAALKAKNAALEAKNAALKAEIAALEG

[28] = target: T28, 4H568-AA; assay: two-hybrid library CCmax; settings: mean of both orientations
T28 chain: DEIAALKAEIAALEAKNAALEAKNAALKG

[29] = target: T29, 4H967-AA; assay: two-hybrid library CCmax
T29 chain: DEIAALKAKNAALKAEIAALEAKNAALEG

[30] = target: T30, 4H687-AA; assay: two-hybrid library CCmax; settings: mean of both orientations
T30 chain: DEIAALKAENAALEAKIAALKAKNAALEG

[31] = target: T31, 4H3855-AA; assay: two-hybrid library CCmax
T31 chain: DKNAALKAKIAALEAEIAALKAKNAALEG

[32] = target: T32, 4H883-AA; assay: two-hybrid library CCmax; settings: mean of both orientations
T32 chain: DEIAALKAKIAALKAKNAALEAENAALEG

[33] = target: T33, 4H4001-AA; assay: two-hybrid library CCmax; settings: mean of both orientations
T33 chain: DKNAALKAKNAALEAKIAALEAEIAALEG

[34] = target: T34, 4H717-AA; assay: two-hybrid library CCmax; settings: mean of both orientations
T34 chain: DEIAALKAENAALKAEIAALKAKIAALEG

[35] = target: T35, 4H3921-AA; assay: two-hybrid library CCmax; settings: mean of both orientations
T35 chain: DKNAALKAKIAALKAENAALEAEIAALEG

[36] = target: T36, 4H3627-AA; assay: two-hybrid library CCmax; settings: mean of both orientations
T36 chain: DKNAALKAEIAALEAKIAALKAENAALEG

[37] = target: T37, 4H454-AA; assay: two-hybrid library CCmax; settings: mean of both orientations
T37 chain: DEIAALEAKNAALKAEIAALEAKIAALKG

[38] = target: T38, 4H906-AA; assay: two-hybrid library CCmax; settings: mean of both orientations
T38 chain: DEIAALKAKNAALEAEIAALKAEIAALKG

[39] = target: T39, 4H678-AA; assay: two-hybrid library CCmax; settings: mean of both orientations
T39 chain: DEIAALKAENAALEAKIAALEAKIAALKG

[40] = target: T40, 4H429-AA; assay: two-hybrid library CCmax; settings: mean of both orientations
T40 chain: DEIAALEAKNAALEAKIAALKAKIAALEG

[41] = target: T41, 4H881-AA; assay: two-hybrid library CCmax; settings: mean of both orientations
T41 chain: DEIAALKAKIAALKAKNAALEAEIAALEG

[42] = target: T42, 4H3427-AA; assay: two-hybrid library CCmax
T42 chain: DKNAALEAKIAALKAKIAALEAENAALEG

[43] = target: T43, 4H3606-AA; assay: two-hybrid library CCmax; settings: mean of both orientations
T43 chain: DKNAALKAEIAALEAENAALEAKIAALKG

[44] = target: T44, 4H605-AA; assay: two-hybrid library CCmax; settings: mean of both orientations
T44 chain: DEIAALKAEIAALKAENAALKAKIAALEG

[45] = target: T45, 4H566-AA; assay: two-hybrid library CCmax; settings: mean of both orientations
T45 chain: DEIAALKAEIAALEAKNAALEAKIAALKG

[46] = target: T46, 4H3782-AA; assay: two-hybrid library CCmax; settings: mean of both orientations
T46 chain: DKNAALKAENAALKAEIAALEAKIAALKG

[47] = target: T47, 4H48-AA; assay: two-hybrid library CCmax; settings: mean of both orientations
T47 chain: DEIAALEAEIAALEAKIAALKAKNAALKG

[48] = target: T48, 4H993-AA; assay: two-hybrid library CCmax; settings: mean of both orientations
T48 chain: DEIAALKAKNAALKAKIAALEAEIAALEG

[49] = target: T49, 4H3844-AA; assay: two-hybrid library CCmax; settings: mean of both orientations
T49 chain: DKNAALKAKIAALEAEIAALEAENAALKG

[50] = target: T50, 4H3655-AA; assay: two-hybrid library CCmax; settings: mean of both orientations
T50 chain: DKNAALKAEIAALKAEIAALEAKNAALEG

[51] = target: T51, 4H794-AA; assay: two-hybrid library CCmax; settings: mean of both orientations
T51 chain: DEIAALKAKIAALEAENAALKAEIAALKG

[52] = target: T52, 4H780-AA; assay: two-hybrid library CCmax; settings: mean of both orientations
T52 chain: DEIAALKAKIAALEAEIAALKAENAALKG

[53] = target: T53, 4H3926-bN; assay: two-hybrid library CCNG1
T53 chain: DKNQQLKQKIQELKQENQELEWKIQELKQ

[54] = target: T54, 4H3497-bN; assay: two-hybrid library CCNG1
T54 chain: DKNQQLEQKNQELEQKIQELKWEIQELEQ

[55] = target: T55, 4H3277-bN; assay: two-hybrid library CCNG1
T55 chain: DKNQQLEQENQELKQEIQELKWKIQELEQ

[56] = target: T56, 4H906-bN; assay: two-hybrid library CCNG1
T56 chain: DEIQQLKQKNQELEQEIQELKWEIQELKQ

[57] = target: T57, 4H3414-bN; assay: two-hybrid library CCNG1
T57 chain: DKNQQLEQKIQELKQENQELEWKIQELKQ

[58] = target: T58, 4H3462-bN; assay: two-hybrid library CCNG1
T58 chain: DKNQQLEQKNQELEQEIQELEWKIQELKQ

[59] = target: T59, 4H3175-bN; assay: two-hybrid library CCNG1
T59 chain: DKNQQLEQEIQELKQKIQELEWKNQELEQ

[60] = target: T60, 4H591-bN; assay: two-hybrid library CCNG1
T60 chain: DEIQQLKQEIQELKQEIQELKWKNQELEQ

[61] = target: T61, 4H3628-bN; assay: two-hybrid library CCNG1
T61 chain: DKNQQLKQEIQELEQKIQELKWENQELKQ

[62] = target: T62, 4H3613-bN; assay: two-hybrid library CCNG1
T62 chain: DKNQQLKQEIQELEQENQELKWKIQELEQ

[63] = target: T63, 4H3298-bN; assay: two-hybrid library CCNG1
T63 chain: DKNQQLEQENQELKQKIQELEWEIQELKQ

[64] = target: T64, 4H626-bN; assay: two-hybrid library CCNG1
T64 chain: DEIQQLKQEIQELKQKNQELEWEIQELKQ

DKIAQLKQEIAELEQENAELKWEIAQLEQ [4H2585-bA]
interaction score [1]: -0.791
interaction score [2]: 1.13
interaction score [3]: -0.357
interaction score [4]: -0.878
interaction score [5]: -0.825
interaction score [6]: -1.31
interaction score [7]: -0.397
interaction score [8]: -1.54
interaction score [9]: -0.28
interaction score [10]: -1.49
interaction score [11]: -1.21
interaction score [12]: 0.266
interaction score [13]: 1.98
interaction score [14]: 0.582
interaction score [15]: -1.08
interaction score [16]: 0.083

DEISQLEQKISELKQENSELEWENSQLEQ [O3-bS]
interaction score [17]: -0.691
interaction score [18]: 0.221
interaction score [19]: -1.46
interaction score [20]: -0.235
interaction score [21]: -1.14
interaction score [22]: 2.28
interaction score [23]: -1.14
interaction score [24]: -0.838

DKNAALKAKIAALEAEIAALKAKNAALEG [4H3855-AA]
interaction score ([25]; mean of both orientations): -2.01
interaction score [26]: -1.29
interaction score [27]: -1.89
interaction score [28]: -1.35
interaction score [29]: -1.53
interaction score [30]: -1.5
interaction score [31]: 1.05
interaction score [32]: -1.77
interaction score [33]: -0.86
interaction score [34]: -1.18

DKNAALEAKIAALKAKIAALEAENAALEG [4H3427-AA]
interaction score [25]: -1.2
interaction score [35]: -1.79
interaction score [36]: -0.773
interaction score [26]: -1.46
interaction score [37]: -0.567
interaction score [38]: -1.69
interaction score [39]: -1.47
interaction score [40]: -1.37
interaction score [41]: -1.68
interaction score [42]: -0.802
interaction score [43]: -0.74
interaction score [27]: -1.66
interaction score [44]: -1.66
interaction score [28]: -0.257
interaction score ([29]; mean of both orientations): -1.59
interaction score [45]: -1.35
interaction score [30]: -1.62
interaction score ([31]; mean of both orientations): -1.01
interaction score [46]: -0.991
interaction score [47]: 1.18
interaction score [32]: -1.7
interaction score [48]: -1.24
interaction score [33]: -1.06
interaction score [49]: 0.482
interaction score [50]: 0.589
interaction score [34]: -1.29
interaction score [51]: -1.26
interaction score [52]: -1.61

DKNQQLEQEIQELKQKIQELEWKNQELEQ [4H3175-bN]
interaction score [53]: -0.72
interaction score [54]: -0.279
interaction score [55]: 0.658
interaction score [56]: -1.02
interaction score [57]: -0.633
interaction score [58]: -0.773
interaction score [59]: 0.818
interaction score [60]: -0.0622
interaction score [61]: -0.511
interaction score [62]: -0.132
interaction score [63]: -0.312
interaction score [64]: -0.521
